The test has as its target T1, DEC-205 receptor on DC 2.4 cells (mouse) (mouse, UniProt Q60767 28-1723).
T1 construct: whole, on cells; also called CD205
Briefly: competition cell ELISA on DC 2.4 cells; competitor bfFp (WET7) pre-bound. On the technique in general: In an ELISA, binding on a coated surface is turned into a signal by an enzyme label.

B1: HB290 mAb (rat anti-mouse DEC-205 monoclonal antibody) (antibody, V domains shown)
VH: EVKLVESGGGLVQPGGSLRLSCAASGFTFNDFYMNWIRQPPGQAPEWLGVIRNKGNGYTTEVNTSVKGRFTISRDNTQNILYLQMNSLRAEDTAIYYCARGGPYYYSGDDAPYWGQGVMVTVSS
VL: DIQMTQSPSFLSTSLGNSITITCHASQNIKGWLAWYQQKSGNAPQLLIYKASSLQSGVPSRFSGSGSGTDYIFTISNLQPEDIATYYCQHYQSFPWTFGGGTKLELK
notes: Full-length rat mAb from the ATCC hybridoma HB290; also called full-length HB290 mAb; NLDC-145
On to B1, for which the binding result is recorded as “binds”.

The values are drawn from patent publication US20100129383A1 (GOVERNORS OF THE UNIVERSITY OF ALBERTA, published 2010).
